Source: patent US20100015126A1, “Methods of Binding of Cross-Beta Structures By Chaperones” (priority 2006, published 2010)

Experiments:
[1] = biological target: T1, recombinant human HSP90beta (Homo sapiens, UniProt P08238); assay: ELISA: binding of HSP90 to immobilized (misfolded) protein ligands; details: 5 mM DTT in binding buffer
T1 construct: purchased Dr. S. Rüdiger, Cellular Protein Chemistry, Utrecht University
Procedure: Recombinant human HSP90beta was bought from Dr. S. Rüdiger (Cellular Protein Chemistry, Department of Chemistry, Faculty of Science, Utrecht University). HSP90beta eluted from an anion exchange column was supplied in 35 mM Bis-Tris/25mM Tris, 5 mM DTT, approximately 385 mM NaCl, approximately pH 9.0. The HSP90beta concentration was 5.0 μM (450 μg/ml with a MW of 90.000 Da; extinction coefficient of 53740 l/(mol*cm)). The supplied frozen stock is kept at −80° C. Before use, the stock is quickly thawed almost completely in a 37° C. water bath, and kept at wet ice. Before use, the HSP90beta solution is centrifuged for 5 minutes at 16,000*g at 4° C. During dilution of HSP90beta solution, 5 mM DTT should be incorporated in the dilution buffer, to keep free Cys residues. Thawed HSP90beta was aliquoted and snap frozen in liquid nitrogen before re-storage at −80° C.
Binding of chaperones to immobilized (misfolded) protein ligands was determined using an enzyme linked immuno sorbent assay (ELISA) approach. […] After 5 washes with wash buffer followed by two washes with PBS, binding of antibodies was assessed. […] Plates were read at 450 nm. Triplicates were averaged and standard deviations calculated. […]

immobilized BiP = biological target: T2, immobilized BiP (Homo sapiens, UniProt P11021); assay: Depletion of solutions from misfolded proteins using immobilized BiP (ELISA); type: binding; details: BiP coated at 5 μg/ml; 1, 10, 100 μg/ml misfolded protein
T2 construct: The human BiP gene except the signal peptide encoding region was obtained from Geneart (Germany); linker […]; made in house; host or cells: HEK 293E cells, transient transfection, PABC674 vector; secreted into the medium
T2 sequence (P11021 19-654): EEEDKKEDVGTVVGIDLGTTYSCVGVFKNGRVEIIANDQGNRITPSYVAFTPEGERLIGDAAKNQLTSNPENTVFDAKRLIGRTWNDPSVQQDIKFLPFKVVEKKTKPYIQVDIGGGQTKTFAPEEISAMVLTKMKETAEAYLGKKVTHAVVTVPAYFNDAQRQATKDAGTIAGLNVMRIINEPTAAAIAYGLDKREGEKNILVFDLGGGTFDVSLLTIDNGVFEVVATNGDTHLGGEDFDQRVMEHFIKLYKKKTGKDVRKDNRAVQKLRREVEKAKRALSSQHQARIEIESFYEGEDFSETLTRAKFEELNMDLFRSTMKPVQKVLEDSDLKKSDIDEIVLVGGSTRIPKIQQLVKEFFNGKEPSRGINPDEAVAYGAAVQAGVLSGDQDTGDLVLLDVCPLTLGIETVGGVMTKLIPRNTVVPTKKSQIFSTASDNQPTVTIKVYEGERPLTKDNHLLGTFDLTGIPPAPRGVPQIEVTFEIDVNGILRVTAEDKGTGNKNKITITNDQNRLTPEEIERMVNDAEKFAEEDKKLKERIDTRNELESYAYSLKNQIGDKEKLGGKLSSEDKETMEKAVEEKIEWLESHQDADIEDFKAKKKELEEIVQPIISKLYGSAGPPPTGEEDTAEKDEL
Procedure: We analysed whether recombinant human BiP with a C-terminal FLAG-tag and His-tag can be applied for depleting solutions from misfolded proteins comprising crossbeta structure.
BiP was coated at a concentration of 5 μg/ml at Greiner Microlon high-binding plates, for 1 h at room temperature with motion. As a negative control buffer was coated. ELISAs were performed essentially as described before. […] All binding buffers were PBS/0.1% (v/v) Tween20. Binding of dOVA was assayed using monoclonal anti-chicken egg albumin antibody (Sigma, A6075, 1:10.000 dilution) and RAMPO (Dako Cytomation, P0260, 1:3.000). […] Background signals obtained with buffer coated wells that were subsequently overlayed with protein solutions (see below), were subtracted from signals obtained with wells with coated BiP.

T1 sequence (P08238 whole entry): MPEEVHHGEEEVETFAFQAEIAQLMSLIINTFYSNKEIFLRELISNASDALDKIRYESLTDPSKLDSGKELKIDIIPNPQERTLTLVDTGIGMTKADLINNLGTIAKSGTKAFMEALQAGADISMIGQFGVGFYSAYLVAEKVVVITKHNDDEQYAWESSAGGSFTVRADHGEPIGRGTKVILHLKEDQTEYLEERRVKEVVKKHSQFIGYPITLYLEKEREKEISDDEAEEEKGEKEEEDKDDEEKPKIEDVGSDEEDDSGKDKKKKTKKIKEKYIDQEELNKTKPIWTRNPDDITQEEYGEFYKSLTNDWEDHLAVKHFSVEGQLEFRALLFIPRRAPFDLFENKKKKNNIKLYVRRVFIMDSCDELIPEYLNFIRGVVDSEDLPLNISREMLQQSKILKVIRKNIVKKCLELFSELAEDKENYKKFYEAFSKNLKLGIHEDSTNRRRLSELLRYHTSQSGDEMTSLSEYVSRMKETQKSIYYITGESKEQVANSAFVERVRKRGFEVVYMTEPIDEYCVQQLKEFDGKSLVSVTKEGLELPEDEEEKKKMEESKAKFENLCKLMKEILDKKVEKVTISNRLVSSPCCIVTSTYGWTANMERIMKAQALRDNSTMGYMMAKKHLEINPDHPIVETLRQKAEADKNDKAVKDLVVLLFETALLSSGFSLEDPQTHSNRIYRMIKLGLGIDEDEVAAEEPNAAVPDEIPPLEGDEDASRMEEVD

B1: dOVA standard: heat-denatured chicken ovalbumin (protein)
chain: GSIGAASMEFCFDVFKELKVHHANENIFYCPIAIMSALAMVYLGAKDSTRTQINKVVRFDKLPGFGDSIEAQCGTSVNVHSSLRDILNQITKPNDVYSFSLASRLYAEERYPILPEYLQCVKELYRGGLEPINFQTAADQARELINSWVESQTNGIIRNVLQPSSVDSQTAMVLVNAIVFKGLWEKAFKDEDTQAMPFRVTEQESKPVQMMYQIGLFRVASMASEKMKILELPFASGTMSMLVLLPDEVSGLEQLESIINFEKLTEWTSSNVMEERKIKVYLPRMKMEEKYNLTSVLMAMGITDVFSSSANLSGISSAESLKISQAVHAAHAEINEAGREVVGSAEAGVDAASVSEEFRADHPFLFCIKHIATNAVLFFGRCVSP
- Binding of concentration series of HSP90 to coated ligand [1]: did also not bind
- Extraction from solution by immobilized BiP (immobilized BiP): can be extracted
